Source: publication PMC5584141 (The Journal of Cell Biology, 2017)
Where a chain is given by its changes, count along the chain named.

T1: GPC6-AP fusion protein (UniProt Q9R087 24-530, carries glycosaminoglycan (GAG) chains; biotinylated with EZ-link Sulfo-NHS-LC biotin for SPR)
T1 sequence: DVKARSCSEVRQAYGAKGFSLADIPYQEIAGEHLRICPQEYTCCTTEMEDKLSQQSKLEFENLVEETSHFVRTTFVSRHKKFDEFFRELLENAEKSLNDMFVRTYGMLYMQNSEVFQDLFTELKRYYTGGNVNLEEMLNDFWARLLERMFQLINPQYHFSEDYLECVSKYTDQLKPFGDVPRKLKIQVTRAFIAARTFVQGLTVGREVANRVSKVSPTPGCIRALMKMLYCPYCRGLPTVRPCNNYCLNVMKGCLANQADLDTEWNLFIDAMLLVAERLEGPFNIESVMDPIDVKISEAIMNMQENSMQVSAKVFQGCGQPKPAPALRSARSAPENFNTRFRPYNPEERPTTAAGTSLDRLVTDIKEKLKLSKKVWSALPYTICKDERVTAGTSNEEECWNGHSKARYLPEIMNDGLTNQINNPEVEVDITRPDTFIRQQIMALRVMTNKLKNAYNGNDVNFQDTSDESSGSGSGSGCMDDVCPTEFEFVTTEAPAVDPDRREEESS

B1: GPC6ΔGAG-AP fusion protein (natural protein)
chain: T1 sequence with S470A, S472A, S474A, S476A
modifications: biotinylated with EZ-link Sulfo-NHS-LC biotin for SPR
B2: recombinant Ihh (ligand)
chain: not shown

Assays:
Assay in all cases: SPR
recombinant Shh = recombinant Shh (UniProt Q62226 25-198)
Chain of recombinant Shh (Q62226 25-198): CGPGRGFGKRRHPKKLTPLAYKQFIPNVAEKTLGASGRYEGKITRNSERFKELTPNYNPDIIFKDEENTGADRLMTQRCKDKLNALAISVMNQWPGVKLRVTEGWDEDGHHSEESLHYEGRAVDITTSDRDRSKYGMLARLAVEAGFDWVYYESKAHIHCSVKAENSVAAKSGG

recombinant Ihh = target: B2
Chain of recombinant Ihh (P97812 28-202): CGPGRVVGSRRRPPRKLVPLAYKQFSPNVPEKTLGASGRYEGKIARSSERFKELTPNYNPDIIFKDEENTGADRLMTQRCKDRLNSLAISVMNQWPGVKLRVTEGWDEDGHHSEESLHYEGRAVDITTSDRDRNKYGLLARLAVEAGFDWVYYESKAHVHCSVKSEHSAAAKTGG

GPC6-AP fusion protein = target: T1, GPC6-AP fusion protein

Binder | Kd (recombinant Shh) [nM] | Kd (recombinant Ihh) [nM] | Kd (GPC6-AP fusion protein) [nM]
B1 | 21 | 16 | 
B2 |  |  | 14
